Measured values as given in patent publication US20240270839A1 (ELPISCIENCE SUZHOU BIOPHARMA, published 2024).
Changes are numbered by the printed parent chain. Values joined by “and” are separate entries in the source; they are usually repeats but may differ in a detail not shown here. Equal values may be shown once.

B1: ch60F11 (antibody, V domains shown)
VH: QVQLQQPGAELVKPGASVKLSCKASGYTFTSYWMHWVKQRPGQGLEWIGMIHPNSGSTNYNEKFKSKATLTVDKSSSTAYMQLSSLTSEDSAVYYCARMGLGNAMDYWGQGTSVTVSS
VL: DIVMTQSPSSLTVTAGEKVTLSCKSSQSLLNSGNQRNYLTWYQQKPGQPPKLLIYWASTRESGVPDRFTGSGSGTDFTLTISSVQAEDLAVYYCQNAYSYPLTFGAGTKLELK
B2: ch35B4 (antibody, V domains shown)
VH: EAKLVESGGDFMQPGGSLKLSCAASGFTLSSYALSWVRQTPEKRLEWVAYISNLGGSTFYPDTVKGRFTISRDNARNTLFLQMSSLQSEDTAIYYCATHLYNYDAFASWGQGTLVTVSA
VL: QIVLSQSPAILSASPGEKVTMTCRASSSVNYIHWYQQKPGSSPKAWIYATSNLASGVPTRFSGSGSGTSYSLTIDRVEAEDAATYYCQQWNSNPLTFGAGTKLELK
B3: ch22E12 (antibody, V domains shown)
VH: QVQLQQPGTELVKTGTSVKLSCKASGYTFTNWVHWVIQRPGQGLEWIGEINPTNGRSNYNEKFKKKATLTLDRSSTTAYMQLSSLTSEDSAVYFCAGIYYGNSFAHWGQGTLVTVSA
VL: B1 VL with R36K, A57S, Y93H, A97N, S99Y
B4: ch33G12 (antibody, V domains shown)
VH: EVKLVESGGGLVQPGGSLKLSCAASGFTFSRYAMSWVRQTPEKRLEWVAYISIGGTTYYPDTIKGRFTISRDNAKNTLYLQMSSLKSEDTAMYYCTRHYYGHDVMDYWGQGTSVTVSS
VL: B2 VL with A9T, S26T, N30S, I32M, Y35F, A45P, T59A, D75S, N91S, S92R
B5: ch99H8 (antibody, V domains shown)
VH: QVQLQQSGPELVKPGASVKLSCKASGYSFTNFDINWVKQRPGQGLQWIGRLYPRDGTTTYNEKFKGKASLTVDTSSTTSYMDLHSLTSEDSAVYFCVRGNYGNSFAYWGQGTLVTVSA
VL: DIVMTQSPSSLTVTAREKVIMNCKSSQSLFNSGNQKNYLTWYQQKPGQSPKLLIYWASTRQSGVPDRFTGSGSGTDFTLTISTVQAEDLAVYFCQNGFSFPYTFGGGTKLEMN
B6: ch97A9 (antibody, V domains shown)
VH: QVQLQQSGPELVKPGASMKLSCKASGYSFTRNDINWVKQRPGQGLEWIGLSYPRDGTTQYNGKFKGKATLTVDTSSSTAYMELRSLTSEDSAVYFCARGYYGNSFAYWGQGTLVTVSA
VL: B1 VL with L21M, R36K, D76Y, Y93F, A97D, S99Y, Y100F, L102Y, A106G, L112I
B7: hu35B4.H1L2-ADE (antibody, human IgG1)
heavy: EVQLLESGGGLVQPGGSLRLSCAASGFTLSSYALSWVRQAPGKGLEWVSYISNLGGSTFYPDTVKGRFTISRDNSKNTLYLQMNSLRAEDTAVYYCAKHLYNYDAFASWGQGTLVTVSSASTKGPSVFPLAPSSKSTSGGTAALGCLVKDYFPEPVTVSWNSGALTSGVHTFPAVLQSSGLYSLSSVVTVPSSSLGTQTYICNVNHKPSNTKVDKKVEPKSCDKTHTCPPCPAPELLAGPDVFLFPPKPKDTLMISRTPEVTCVVVDVSHEDPEVKFNWYVDGVEVHNAKTKPREEQYNSTYRVVSVLTVLHQDWLNGKEYKCKVSNKALPAPEEKTISKAKGQPREPQVYTLPPSREEMTKNQVSLTCLVKGFYPSDIAVEWESNGQPENNYKTTPPVLDSDGSFFLYSKLTVDKSRWQQGNVFSCSVMHEALHNHYTQKSLSLSPGK
VL: DIQLTQSPSFLSASVGDRVTITCRASSSVNYIHWYQQKPGKAPKALIYATSNLASGVPSRFSGSGSGTEYTLTISSLQPEDFATYYCQQWNSNPLTFGQGTKLEIK
B8: hu35B4.H1L2-DLE (antibody, human IgG1)
heavy: B7 heavy with A238G, A332L
VL: B7 VL
B9: hu35B4.H1L2-DE (antibody, human IgG1)
heavy: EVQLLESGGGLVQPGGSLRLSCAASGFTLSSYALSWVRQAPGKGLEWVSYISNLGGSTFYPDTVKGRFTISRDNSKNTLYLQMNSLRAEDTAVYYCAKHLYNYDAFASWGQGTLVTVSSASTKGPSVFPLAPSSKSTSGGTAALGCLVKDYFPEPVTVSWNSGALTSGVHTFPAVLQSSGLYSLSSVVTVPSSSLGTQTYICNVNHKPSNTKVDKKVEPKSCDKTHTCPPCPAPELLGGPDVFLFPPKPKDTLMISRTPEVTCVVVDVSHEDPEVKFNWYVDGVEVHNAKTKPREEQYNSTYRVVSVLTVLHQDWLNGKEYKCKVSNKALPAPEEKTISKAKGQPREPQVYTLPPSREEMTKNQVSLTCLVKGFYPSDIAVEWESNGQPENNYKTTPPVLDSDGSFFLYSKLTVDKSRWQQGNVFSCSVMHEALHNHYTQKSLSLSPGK
VL: B7 VL
B10: hu35B4.H1L2-VLPLL (antibody, human IgG1)
heavy: B7 heavy with L237V, A238G, D241S, F245L, R294P, Y302L, E334I, P398L
VL: B7 VL
B11: hu35B4.H1L2 (antibody, V domains shown)
VH: EVQLLESGGGLVQPGGSLRLSCAASGFTLSSYALSWVRQAPGKGLEWVSYISNLGGSTFYPDTVKGRFTISRDNSKNTLYLQMNSLRAEDTAVYYCAKHLYNYDAFASWGQGTLVTVSS
VL: B7 VL
notes: humanized 35B4
B12: hu22E12.H1L2 (antibody, V domains shown)
VH: QVQLVQSGAEVKKPGASVKVSCKASGYTFTNWVHWVRQAPGQGLEWMGEINPTNARSNYNEKFKKRVTMTRDTSTSTVYMELSSLRSEDTAVYYCARIYYGNSFAHWGQGTLVTVSS
VL: DIVMTQSPDSLAVSLGERATINCKSSQSLLNAGNQKNYLTWYQQKPGQPPKLLIYWSSTRESGVPDRFSGSGSGTDFTLTISSLQAEDVAVYHCQNNYYYPLTFGGGTKLEIK
notes: humanized 22E12
B13: 99H8 (antibody, V domains shown)
VH: B5 VH
VL: B5 VL
notes: mouse hybridoma antibody, purified; also called clone 99H8
B14: 97A9 (antibody, V domains shown)
VH: B6 VH
VL: B1 VL with L21M, R36K, D76Y, Y93F, A97D, S99Y, Y100F, L102Y, A106G, L112I
notes: mouse hybridoma antibody, purified; also called clone 97A9
B15: 35B4 (antibody, V domains shown)
VH: B2 VH
VL: B2 VL
notes: mouse hybridoma antibody, purified; also called clone 35B4
B16: hu22E12.H1L2-ADE (antibody, human IgG1)
heavy: QVQLVQSGAEVKKPGASVKVSCKASGYTFTNWVHWVRQAPGQGLEWMGEINPTNARSNYNEKFKKRVTMTRDTSTSTVYMELSSLRSEDTAVYYCARIYYGNSFAHWGQGTLVTVSSASTKGPSVFPLAPSSKSTSGGTAALGCLVKDYFPEPVTVSWNSGALTSGVHTFPAVLQSSGLYSLSSVVTVPSSSLGTQTYICNVNHKPSNTKVDKKVEPKSCDKTHTCPPCPAPELLAGPDVFLFPPKPKDTLMISRTPEVTCVVVDVSHEDPEVKFNWYVDGVEVHNAKTKPREEQYNSTYRVVSVLTVLHQDWLNGKEYKCKVSNKALPAPEEKTISKAKGQPREPQVYTLPPSREEMTKNQVSLTCLVKGFYPSDIAVEWESNGQPENNYKTTPPVLDSDGSFFLYSKLTVDKSRWQQGNVFSCSVMHEALHNHYTQKSLSLSPGK
VL: B12 VL
B17: hu22E12.H1L2-DLE (antibody, human IgG1)
heavy: B16 heavy with A236G, A330L
VL: B12 VL
B18: hu22E12.H1L2-DE (antibody, human IgG1)
heavy: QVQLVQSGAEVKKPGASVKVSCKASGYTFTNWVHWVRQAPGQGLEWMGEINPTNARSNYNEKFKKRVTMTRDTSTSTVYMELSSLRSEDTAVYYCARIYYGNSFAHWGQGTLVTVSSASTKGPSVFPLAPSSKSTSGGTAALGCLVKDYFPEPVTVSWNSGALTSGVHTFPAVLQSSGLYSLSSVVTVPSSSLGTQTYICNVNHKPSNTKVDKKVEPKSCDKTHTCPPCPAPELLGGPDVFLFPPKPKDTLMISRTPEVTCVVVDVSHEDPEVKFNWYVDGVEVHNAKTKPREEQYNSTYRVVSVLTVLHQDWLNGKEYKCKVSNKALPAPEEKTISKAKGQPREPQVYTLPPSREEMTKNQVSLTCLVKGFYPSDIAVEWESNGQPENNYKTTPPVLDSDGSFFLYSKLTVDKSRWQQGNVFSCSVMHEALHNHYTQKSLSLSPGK
VL: B12 VL
B19: hu22E12.H1L2-VLPLL (antibody, human IgG1)
heavy: B16 heavy with L235V, A236G, D239S, F243L, R292P, Y300L, E332I, P396L
VL: B12 VL

biological target: human CLDN18.2 (hCLDN18.2), expressed on cells (human); experiment: cell-based or functional assay

PBMC VS NUGC4 ADCC (EC50 nM) [nM]	Binder
8.69	B1
4.05	B2
1.06	B3
0.458	B4
3.31	B5
6.93	B6

biological target: human CLDN18.2 (hCLDN18.2), expressed on cells (human); experiment: cell-based or functional assay; remark: another data set of the same source

ADCC EC50 (nM), NK-CD16a effector cells [nM]	Binder
0.0803	B2
7.1e-05	B7
1.32e-05	B8
2.75e-05	B9
9.43e-05	B10
0.02	B11

biological target: T1, human CLDN18.2 (hCLDN18.2), expressed on cells (human); experiment: FACS, MFC cells over-expressing hCLDN18.2
T1 construct: the constructs in the cell lines are not described; also called Claudin18.2; HEK293-hCLDN18.2

EC50	Binder
1060 pM and 943 pM	B3
1320 pM	B12

biological target: T1, human CLDN18.2 (hCLDN18.2), expressed …; experiment: FACS, HEK293/hCLDN18.2 cells

EC50 [pM]	Binder
1100	B13
1600	B14
850	B15

biological target: T1, human CLDN18.2 (hCLDN18.2), expressed …; experiment: FACS, SNU620 cells (endogenous CLDN18.2)

EC50 [pM]	Binder
19000	B13
3300	B14
3800	B15

biological target: T1, human CLDN18.2 (hCLDN18.2), expressed …; experiment: cell-based or functional assay

ADCC EC50 (nM), NK-CD16a effector cells [nM]	Binder
0.126	B3
0.00765	B16
0.00503	B17
0.00637	B18
0.00997	B19
0.144	B12

biological target: T1, human CLDN18.2 (hCLDN18.2), expressed …; experiment: FACS, SNU620 cells over-expressing hCLDN18.2

EC50	Binder
419 pM and 442 pM	B2
253 pM	B11
